The record followed here is US20210024615A1 (LIVERPOOL SCHOOL OF TROPICAL MEDICINE, published 2021).

Sequences and labels used below:
T1: Siglec-4 (UniProt P20916 20-516)
T1 construct: also called MAG
T1 sequence (looked up): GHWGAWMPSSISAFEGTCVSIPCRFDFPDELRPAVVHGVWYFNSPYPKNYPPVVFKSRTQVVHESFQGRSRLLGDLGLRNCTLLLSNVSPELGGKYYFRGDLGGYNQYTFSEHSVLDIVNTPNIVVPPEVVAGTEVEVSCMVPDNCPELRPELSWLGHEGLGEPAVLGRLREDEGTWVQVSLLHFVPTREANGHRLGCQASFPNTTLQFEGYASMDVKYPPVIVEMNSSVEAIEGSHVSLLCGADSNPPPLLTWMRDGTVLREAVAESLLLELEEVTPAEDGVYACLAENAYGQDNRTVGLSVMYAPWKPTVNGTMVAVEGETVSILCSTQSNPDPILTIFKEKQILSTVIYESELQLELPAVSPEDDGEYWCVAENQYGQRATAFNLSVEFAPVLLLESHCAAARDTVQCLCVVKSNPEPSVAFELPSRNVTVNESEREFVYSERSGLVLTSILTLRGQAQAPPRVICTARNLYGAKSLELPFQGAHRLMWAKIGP

T2: CD23 (UniProt P06734 48-321)
T2 sequence (looked up): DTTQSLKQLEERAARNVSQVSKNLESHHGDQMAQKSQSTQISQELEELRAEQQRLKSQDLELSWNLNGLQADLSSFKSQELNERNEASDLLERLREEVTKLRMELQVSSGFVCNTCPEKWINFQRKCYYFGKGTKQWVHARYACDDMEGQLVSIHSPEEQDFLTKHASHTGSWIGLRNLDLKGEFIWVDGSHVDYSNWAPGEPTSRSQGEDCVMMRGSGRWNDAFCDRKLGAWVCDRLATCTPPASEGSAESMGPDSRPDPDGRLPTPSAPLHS

T3: dectin-1 (UniProt Q9BXN2-2 66-201)
T3 construct: also called dec-1
T3 sequence (looked up): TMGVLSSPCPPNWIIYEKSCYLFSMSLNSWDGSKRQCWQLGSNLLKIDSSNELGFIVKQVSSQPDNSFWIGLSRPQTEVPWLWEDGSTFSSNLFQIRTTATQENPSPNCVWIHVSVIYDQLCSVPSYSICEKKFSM

T4: dectin-2 (UniProt Q6EIG7 46-209)
T4 construct: also called dec-2
T4 sequence (looked up): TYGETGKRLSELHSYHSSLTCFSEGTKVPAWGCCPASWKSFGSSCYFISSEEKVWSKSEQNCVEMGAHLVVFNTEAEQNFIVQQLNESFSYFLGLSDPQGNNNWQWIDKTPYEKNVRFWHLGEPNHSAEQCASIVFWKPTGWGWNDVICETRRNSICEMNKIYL

T5: tetrameric human DC-SIGN (human, UniProt Q9NNX6 66-404)
T5 sequence (looked up): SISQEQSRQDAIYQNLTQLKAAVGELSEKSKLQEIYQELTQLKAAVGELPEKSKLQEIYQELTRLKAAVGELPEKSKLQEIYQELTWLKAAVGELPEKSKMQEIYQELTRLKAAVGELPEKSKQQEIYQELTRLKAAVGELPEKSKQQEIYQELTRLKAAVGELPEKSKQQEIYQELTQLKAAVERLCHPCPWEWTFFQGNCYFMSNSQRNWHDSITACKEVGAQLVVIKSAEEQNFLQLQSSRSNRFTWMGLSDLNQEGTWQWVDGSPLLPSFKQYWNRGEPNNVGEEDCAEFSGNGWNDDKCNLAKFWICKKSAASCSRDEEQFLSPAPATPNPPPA

T6: clec-4a (UniProt Q9UMR7 70-237)
T6 construct: also called DCIR
T6 sequence (looked up): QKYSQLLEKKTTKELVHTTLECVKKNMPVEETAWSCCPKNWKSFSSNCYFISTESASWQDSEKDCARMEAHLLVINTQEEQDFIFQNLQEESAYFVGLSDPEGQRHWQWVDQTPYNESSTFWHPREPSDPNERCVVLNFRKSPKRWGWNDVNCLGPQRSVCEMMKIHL

T7: clec-4d (UniProt Q8WXI8 39-215)
T7 sequence (looked up): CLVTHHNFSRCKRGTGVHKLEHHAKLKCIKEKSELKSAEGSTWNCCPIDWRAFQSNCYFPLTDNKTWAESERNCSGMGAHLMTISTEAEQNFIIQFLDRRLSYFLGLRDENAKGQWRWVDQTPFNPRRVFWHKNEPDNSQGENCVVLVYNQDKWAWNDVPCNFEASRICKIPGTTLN

T8: MMR (UniProt P22897 19-1383)
T8 sequence (looked up): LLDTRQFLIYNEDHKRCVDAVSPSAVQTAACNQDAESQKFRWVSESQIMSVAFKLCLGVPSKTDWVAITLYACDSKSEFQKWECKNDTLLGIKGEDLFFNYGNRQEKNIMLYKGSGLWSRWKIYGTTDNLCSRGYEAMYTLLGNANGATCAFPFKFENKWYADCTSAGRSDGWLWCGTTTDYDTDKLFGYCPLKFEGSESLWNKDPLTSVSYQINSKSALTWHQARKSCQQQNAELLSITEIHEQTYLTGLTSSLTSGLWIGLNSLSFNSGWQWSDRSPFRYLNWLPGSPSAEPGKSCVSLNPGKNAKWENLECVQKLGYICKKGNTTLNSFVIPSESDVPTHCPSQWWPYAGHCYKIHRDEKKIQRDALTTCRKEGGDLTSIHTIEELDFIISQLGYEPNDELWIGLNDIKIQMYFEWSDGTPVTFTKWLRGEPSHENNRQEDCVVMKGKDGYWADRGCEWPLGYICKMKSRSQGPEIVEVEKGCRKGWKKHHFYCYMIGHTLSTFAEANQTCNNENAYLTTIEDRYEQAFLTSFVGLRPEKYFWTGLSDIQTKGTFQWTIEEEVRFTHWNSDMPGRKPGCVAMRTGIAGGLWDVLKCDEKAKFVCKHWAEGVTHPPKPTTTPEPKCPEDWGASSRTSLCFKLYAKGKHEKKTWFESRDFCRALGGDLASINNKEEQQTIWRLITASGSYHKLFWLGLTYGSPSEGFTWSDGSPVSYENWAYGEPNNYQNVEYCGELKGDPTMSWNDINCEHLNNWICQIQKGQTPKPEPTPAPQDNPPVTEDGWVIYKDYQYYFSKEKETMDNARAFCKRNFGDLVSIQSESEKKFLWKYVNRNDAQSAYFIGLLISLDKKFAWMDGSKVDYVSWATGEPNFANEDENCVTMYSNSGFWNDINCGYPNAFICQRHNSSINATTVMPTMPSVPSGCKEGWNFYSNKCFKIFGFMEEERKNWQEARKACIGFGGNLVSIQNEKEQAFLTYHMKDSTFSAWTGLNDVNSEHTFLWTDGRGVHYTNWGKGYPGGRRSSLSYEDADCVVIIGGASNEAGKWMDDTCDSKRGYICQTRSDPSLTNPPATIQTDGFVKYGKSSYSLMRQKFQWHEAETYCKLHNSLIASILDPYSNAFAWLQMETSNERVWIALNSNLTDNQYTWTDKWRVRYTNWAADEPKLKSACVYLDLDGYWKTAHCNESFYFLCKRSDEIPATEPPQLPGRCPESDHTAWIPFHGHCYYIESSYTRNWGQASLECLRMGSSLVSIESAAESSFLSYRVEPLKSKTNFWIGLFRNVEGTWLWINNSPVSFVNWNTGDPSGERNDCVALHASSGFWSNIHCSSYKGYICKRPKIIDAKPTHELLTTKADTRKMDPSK

T9: human FcγRIIA (human, UniProt P12318 36-218)
T9 sequence (looked up): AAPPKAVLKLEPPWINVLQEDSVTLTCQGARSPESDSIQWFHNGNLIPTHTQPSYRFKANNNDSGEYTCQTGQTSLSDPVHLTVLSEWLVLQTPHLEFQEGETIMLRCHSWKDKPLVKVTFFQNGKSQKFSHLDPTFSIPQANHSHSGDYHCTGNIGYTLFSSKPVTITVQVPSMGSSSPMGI

T10: human FcγRIIB (human, UniProt P31994 46-217)
T10 construct: also called CD32B
T10 sequence (looked up): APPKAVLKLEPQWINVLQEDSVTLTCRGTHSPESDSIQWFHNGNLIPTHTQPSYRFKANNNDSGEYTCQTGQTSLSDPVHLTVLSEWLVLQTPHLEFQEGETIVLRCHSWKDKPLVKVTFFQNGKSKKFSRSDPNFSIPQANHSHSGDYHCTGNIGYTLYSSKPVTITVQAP

B1: [change]/[change] (other)
chain: DKTHTCPPCPAPELLGGPSVFLFPPKPKDTLMISRTPEVTCVVVDVSHEDPEVKFNWYVDGVEVHNAKTKPREEQYASTYRVVSVLTVCLQDWLNGKEYKCKVSNKALPAPIEKTISKAKGQPREPQVYTLPPSREEMTKNQVSLTCLVKGFYPSDIAVEWESNGQPENNYKTTPPVLDSDGSFFLYSKLTVDKSRWQQGNVFSCSVMHEALHNHYTQKSLSLSPGKLVLGPPLYNVSLVMSDTAGTAY
B2: [change]/[change]/[change] (other)
chain: B1 chain with D1N
B3: [change]/[change]/[change] (other)
chain: B1 chain with D1N, A77N, N236A
B4: [change]/[change]/[change] (other)
chain: B1 chain with N236A
B5: [change]/[change]/[change]/[change] (other)
chain: B1 chain with D1N, N236A

Where a chain is given by its changes, count along the chain named.

human FcγRIIIB, sequence (O75015 17-200 limits assumed): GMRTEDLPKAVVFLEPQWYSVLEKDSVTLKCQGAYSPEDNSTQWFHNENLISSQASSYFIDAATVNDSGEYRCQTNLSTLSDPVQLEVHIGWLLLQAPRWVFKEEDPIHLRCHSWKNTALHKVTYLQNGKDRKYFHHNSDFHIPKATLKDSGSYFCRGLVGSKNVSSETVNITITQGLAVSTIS

The target in the first assay is T11, Siglec-2 (UniProt P20273 20-687).
T11 construct: also called CD22
In words: ELISA. (An ELISA detects its analyte on a solid surface through an enzyme-linked reagent.)
In the case of B1, the binding result is on record as “no binding”.
As for B2, the binding result is reported as “no binding”.
With B3, the binding result was “no binding”.

The target in the next assay is Siglec-3 (UniProt P20138 18-259). Kind of assay: ELISA.
Siglec-3, sequence (P20138 18-259 limits assumed): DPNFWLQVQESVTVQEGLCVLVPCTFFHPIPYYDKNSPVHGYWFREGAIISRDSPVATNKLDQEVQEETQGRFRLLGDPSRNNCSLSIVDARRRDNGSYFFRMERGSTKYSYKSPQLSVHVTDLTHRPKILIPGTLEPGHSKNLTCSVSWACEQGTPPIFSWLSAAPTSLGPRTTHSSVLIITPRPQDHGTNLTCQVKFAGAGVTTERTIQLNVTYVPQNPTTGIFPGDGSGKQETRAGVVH
For B1, the binding result was “no binding”.
As for B2, the binding result is on record as “no binding”.
B4: the binding result is reported as “no binding”.
On the same count and under the same terms, the value for B3 was “no binding”.

The target of another assay is T1, Siglec-4. Kind of assay: ELISA.
For B1, the binding result was “no binding”.
On the same count and under the same terms, the result for B2 reads “no binding”.

The next assay deals with T2, CD23. In words: ELISA.
With B4, the binding result is “no binding”.
Still for that read-out and setting: the result for B3 reads “no binding”.

In the next assay the target is T3, dectin-1. Kind of assay: ELISA.
As to B1, the binding result was “no binding”.
Regarding B2, the binding result was “no binding”.
B5: the binding result was “no binding”.
The same measure, in the same setting: the result for B3 reads “no binding”.

The next assay addresses T4, dectin-2. Kind of assay: ELISA.
With B1, the binding result is given as “no binding”.
For the molecule B2, the binding result is “no binding”.

In another assay the target is T5, tetrameric human DC-SIGN. Kind of assay: ELISA.
Regarding B1, the binding result is reported as “no binding”.
For the molecule B2, the binding result is recorded as “no binding”.
As for B4, the binding result is recorded as “binds”.
As for B5, the binding result is “no binding”.
Same read-out and setting: the value for B3 was “no binding”.

Another assay concerns the target T6, clec-4a. Kind of assay: ELISA.
B1: the binding result is “no binding”.
For B2, the binding result is listed as “no binding”.
For B4, the binding result is recorded as “no binding”.
On the same count and under the same terms, the result for B5 reads “no binding”; that for B3, “no binding”.

Another assay has as its target T7, clec-4d. Kind of assay: ELISA.
As for B1, the binding result is recorded as “no binding”.
On the same count and under the same terms, the result for B2 reads “no binding”; that for B4, “no binding”; that for B3, “no binding”.

For another assay, the target named is MBL (UniProt P11226 21-248). Kind of assay: ELISA.
MBL, sequence (P11226 21-248 limits assumed): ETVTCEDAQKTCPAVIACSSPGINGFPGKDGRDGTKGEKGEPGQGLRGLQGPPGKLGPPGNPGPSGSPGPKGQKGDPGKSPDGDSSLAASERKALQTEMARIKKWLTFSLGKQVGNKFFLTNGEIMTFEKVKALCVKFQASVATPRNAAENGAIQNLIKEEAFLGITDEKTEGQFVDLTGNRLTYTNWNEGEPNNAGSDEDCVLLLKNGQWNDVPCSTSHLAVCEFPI
For the molecule B1, the binding result is given as “no binding”.
Regarding B2, the binding result is listed as “no binding”.
Same read-out and setting: the result for B5 reads “no binding”; that for B3, “no binding”.

A further assay addresses T8, MMR. In words: ELISA.
Turning to B1, the binding result was “no binding”.
Still for that read-out and setting: the value for B2 was “no binding”; that for B5 was “no binding”.
Still for that read-out and setting: the result for B3 reads “no binding”.

The target of the next assay is T9, human FcγRIIA. Kind of assay: ELISA.
On to B5, for which the binding result is reported as “no binding”.

Another assay deals with T10, human FcγRIIB. Kind of assay: ELISA.
Consider B1, for which the binding result is reported as “no binding”.
B2: the binding result is recorded as “no binding”.
On the same count and under the same terms, the value for B4 was “binds”; that for B5 was “no binding”.
Same read-out and setting: the result for B3 reads “no binding”.

For a further assay, the target named is human FcγRIIIA (human, UniProt P08637 17-208). In words: ELISA.
human FcγRIIIA, sequence (P08637 17-208 limits assumed): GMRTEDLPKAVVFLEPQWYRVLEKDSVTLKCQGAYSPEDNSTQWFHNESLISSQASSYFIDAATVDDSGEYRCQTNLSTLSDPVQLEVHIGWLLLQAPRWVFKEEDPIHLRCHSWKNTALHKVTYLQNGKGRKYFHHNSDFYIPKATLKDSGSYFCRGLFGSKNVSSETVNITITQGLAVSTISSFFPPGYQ
Consider B1, for which the binding result is listed as “no binding”.
As to B2, the binding result is listed as “no binding”.
The same measure, in the same setting: the result for B4 reads “no binding”; that for B5, “no binding”; that for B3, “binds”.

Another assay concerns the target human FcγRIIIB (human, UniProt O75015 17-200). In words: ELISA.
For B5, the binding result is recorded as “no binding”.

The target in the next assay is C1q (UniProt P02745 23-245; P02746 28-253; P02747 29-245). Kind of assay: ELISA.
C1q, sequence (P02745 23-245, chain 1 of 3): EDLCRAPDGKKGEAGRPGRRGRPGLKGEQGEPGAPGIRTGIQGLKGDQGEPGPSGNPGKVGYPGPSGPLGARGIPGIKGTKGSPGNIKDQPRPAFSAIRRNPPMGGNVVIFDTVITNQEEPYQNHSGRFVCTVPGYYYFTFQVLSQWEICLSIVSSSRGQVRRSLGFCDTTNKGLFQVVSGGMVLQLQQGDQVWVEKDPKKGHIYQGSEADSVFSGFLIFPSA
C1q, sequence (P02746 28-253, chain 2 of 3): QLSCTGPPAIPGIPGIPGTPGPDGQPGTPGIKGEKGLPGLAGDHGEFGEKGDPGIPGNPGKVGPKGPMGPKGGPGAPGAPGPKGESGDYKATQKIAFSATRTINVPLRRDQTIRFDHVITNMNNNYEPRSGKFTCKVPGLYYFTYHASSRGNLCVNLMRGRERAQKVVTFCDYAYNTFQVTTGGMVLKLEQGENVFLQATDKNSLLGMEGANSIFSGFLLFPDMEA
C1q, sequence (P02747 29-245, chain 3 of 3): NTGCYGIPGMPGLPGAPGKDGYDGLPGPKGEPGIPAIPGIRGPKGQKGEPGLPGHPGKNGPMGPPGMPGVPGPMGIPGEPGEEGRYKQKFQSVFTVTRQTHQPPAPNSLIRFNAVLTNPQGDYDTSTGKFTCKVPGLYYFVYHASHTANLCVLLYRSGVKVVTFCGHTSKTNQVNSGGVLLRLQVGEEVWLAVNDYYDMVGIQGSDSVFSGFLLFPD
In the case of B1, the binding result is on record as “no binding”.
The same measure, in the same setting: the result for B2 reads “no binding”.
